Reference: PMC4352398

Tests used:
[1] = target: constitutively active Flag-Rab4 variant (Drosophila); assay: co-IP
[2] = target: dominant negative Flag-Rab4 variant (Drosophila); assay: co-IP

fold stronger association than with wild type Flag-Rab4 [1]: 3.26 fold
fold weaker association than with wild type Flag-Rab4 [2]: 2.88 fold
B1: Myc-RhoGAP68F (natural protein)
chain: MDAHSRFAPRLPGPAINPIVDNSDEPQPSLSDLHDFEPKLEFDDTELLAPSPLEKDVMVGDFVLAEDPELEPEEDVNPLEDDFEDQLREQSENFQTPRNKCDFLGTDKQGRHIFGIYASRFPEKSQLEGFVREIIKEIEPFVENDYILVYFHQGLKEDNKPSAQFLWNSYKELDRNFRKNLKTLYVVHPTWFIRVIWNFFSPFISDKFRKKLVYISSLDELRQALGLNKLKLPDNICDLDDKLNPSRKPSTPPPSSNINASRQQQHKMATTHQFGVPLKFIVMNSPCLNSIPPIVRKCVDSLSITGVIDTEGIFRRSGNHSEIMALKERVNRGEDVDLKSVNVHVIAGLLKSFLRDLAEPLLTFELYEDVTGFLDWPKEERSRNVTQLIREKLPEENYELFKYIVEFLVRVMDCEDLNKMTSSNLAIVFGPNFLWSRSTSTSLEEIAPINAFVDFVLQNHKDIYLIDVNQRTVSVD
